Data from US20060034833A1 (published 2006).

T1: human IFN-gamma (human, UniProt P01579 24-166)
T1 sequence (looked up): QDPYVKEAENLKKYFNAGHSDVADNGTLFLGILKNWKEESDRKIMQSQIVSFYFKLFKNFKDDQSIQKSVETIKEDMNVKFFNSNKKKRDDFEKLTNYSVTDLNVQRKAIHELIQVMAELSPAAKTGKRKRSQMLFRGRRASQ

T2: mouse IFN-γ receptor (IFN-γ R1/Fc) (mouse, UniProt P15261 26-253, limits assumed)
T2 construct: Bought Fc fusion, coated on plates; not shown: Fc part of the bought fusion; not described
T2 sequence (looked up): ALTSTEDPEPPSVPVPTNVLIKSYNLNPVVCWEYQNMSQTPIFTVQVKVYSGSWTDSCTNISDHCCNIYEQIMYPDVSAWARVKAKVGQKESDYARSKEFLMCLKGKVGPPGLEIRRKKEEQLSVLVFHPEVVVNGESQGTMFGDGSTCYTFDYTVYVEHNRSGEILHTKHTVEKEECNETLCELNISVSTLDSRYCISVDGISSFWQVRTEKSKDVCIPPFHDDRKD

B1: MP2F6SR/MP2F6SR (VHH)
chain: QVKLEESGGGLVQAGGSLRLSCAASGRTFNNYNMGWFRQAPGKEREFVAAISWNGGSTYYDDSVKGRFTISRDNANNLVYLQMNSLNFEDTAVYYCACAANPYGIPQYRENRYDFWGQGTQVTVSSEPKTPKPQPAAAQVKLEESGGGLVQAGGSLRLSCAASGRTFNNYNMGWFRQAPGKEREFVAAISWNGGSTYYDDSVKGRFTISRDNANNLVYLQMNSLNFEDTAVYYCACAANPYGIPQYRENRYDFWGQGTQVTVSS
B2: MP3B1SRA (VHH)
VHH: QVQLQESGGGLVQPGGSLRLSCAASGFTSSNYAMSWVRQAPGKGLEWVSSINSRTGSITYADSVKGRFTITLDNAKNTLYLQMNSLKPEDTAVYYCASRVDDRVSRGQGTQVTVSS
B3: MP4C10SR (VHH)
VHH: QVQLQESGGGLVQPGGSLRLSCAASGFTVSNYAMSWVRQPPGKGIEWVSSINNRNDHITYADSVKGRFTIARDNANNILYLQMNSLKPEDTAVYYCASRVDDRVSRGQGTQVTVSS
B4: MP3A7SRA (VHH)
VHH: QVQLQDSGGGLVQAGGSLRLSCAASGRTFSSFRMGWFRRAPGEEREFVAFVRSNGTSTYYADSVEGRFTITRDNAKNTVYLRMDSLKPEDTAVYYCAAATRDYGGSFDYWGQGTQVIVSS
B5: MP3F1SRA (VHH)
VHH: QVQLQESGGGLVQAGGSLTLSCVASGRTISDYAVGWFRQAPGKEREFVASISWGGGFTAFADSMKGRFTISRDNAKNTVYLQTHTLEPDDTSVYYCASSRRYCTGYRCYATASEFDSWGQGTQVTVSS
B6: MP3C1SR (VHH)
VHH: QVQLQDSGGGLVQAGGSLRLSCAAAGISGSVFSRTPMGWYRQAPGKQRELVAGILSSGATVYAESVKGRFTISRDNAKNTVYLQMNSLSPEDTAEYYCNTYPTWVLSWGQGTQVTVSS
B7: MP3D2BR (VHH)
VHH: QVQLQESGGGLVQPGESLRLSCAASRGIFRFNAGGWYRQAPGKQRELVAFIGVDNTTRYIDSVKGRFTISRDNAKTTVYLQMNSLQPEDTAVYYCNKVPYIDWGQGTQVTVSS
B8: MP2F6SR (VHH)
VHH: QVKLEESGGGLVQAGGSLRLSCAASGRTFNNYNMGWFRQAPGKEREFVAAISWNGGSTYYDDSVKGRFTISRDNANNLVYLQMNSLNFEDTAVYYCACAANPYGIPQYRENRYDFWGQGTQVTVSS
B9: MP3C7SRA (VHH)
VHH: QVQLQESGGGLVQAGDSLRLSCAASGRSFSSYGMGWFRQAPGKEHEFVAGIWRSGVSLYYADSVKGRFTISRDDAKMTVSLQMNSLKPEDTAVYYCAAEATFPTWNRGRFADYDYSGQGTQVTVSS
B10: MP2F1BR (VHH)
VHH: AVQLVESGGGLVQTGDSLRLSCVASGGTFSRYAMGWFRQAPGKEREFVARIGYSGRSISYATSVEGRFAISRDNAKNTVYLQMNSLKPEDTAVYYCASLVSGTLYQADYWGQGTQVTVSS
B11: mouse IFN-gamma (ligand, UniProt P01580 23-155, looked up)
chain: HGTVIESLESLNNYFNSSGIDVEEKSLFLDIWRNWQKDGDMKILQSQIISFYLRLFEVLKDNQAISNNISVIESHLITTFFSNSKAKKDAFMSIAKFEVNNPQVQRQAFNELIRVVHQLLPESSLRKRKRSRC
notes: Used biotinylated (biotinamidocaproic acid 3-sulfo N-hydroxysuccinimide ester) in the assays; also called mouse IFN-γ; biotinylated mouse IFN-γ
B12: MP6 D6 BR (VHH)
VHH: QVQLQESGGGLVQAGGSLRLSCAVSGSIFSLLAMGWFRQAPGKERELVASVSTHSNTNYADSVKGRFTISRDNAKNTVYLQMNSLKPEDTAVYYCNAGGRYSARVYWGQGTQVTVSS
notes: Llama VHH selected on mouse IFN-γ
B13: MP6 B1 BR (VHH)
VHH: QVQLQESGGGLVQAGGSLRLSCAASGFTSDDYAIGWFRQAPGKEREGVSCISSSDGVTYYADSVKGRFTISSDNAKNTVYLQMNSLKPEDTAVYYCAADSLPLCFSGSYYHPYEYDYLGQGTQVTVSS
notes: as for B12
B14: MP6 A8 BR (VHH)
VHH: QVQLQESGGGLVQAGGSLRLSCAASGFTFDDYAIGWFRQAPGKELEGVSMINSGGGSTYYADSVKGRFTISSDNAKNTVYLQMNSLKPEDTAVYYCAADQNARLFRLWVVTGTGPVDNALDAWGQGTLVTVSS
notes: as for B12
B15: MP6 B12 BR (VHH)
VHH: QVQLQESGGGLVQAGGSLRLSCAASGFTFDDYDIGWFRQAPGKEREEVSCISNIDGSTYYADSVKGRFTISSDNAKNTAYLQMSSLKPEDTAVYYCAADIYVRCVHGLSPGYWGQGIQVTVSS
notes: as for B12
B16: MP6 C11 BR (VHH)
VHH: QVQLQESGGGLVQAGGSLRLSCAASGRTFSTYAMGWFRQAPGKEREFVAGITSSGGYTYYADSVKGRFTISRDNAKNTVYLQMNSLKPEDTAVYYCAAGFRVGIALDLKGRYDYWGQGTQVTVSS
notes: as for B12
B17: MP6 B10 BR (VHH)
VHH: QVQLQDSGGGLVQLGGSLRLSCAISGRILGSYAVGWFRQAPGKERQFVAAIGWSYGNTYYADSVKGRFTISRDNAKNTVYLQINSLKPEDTAVYYCAAGDTYLTGRPNEYAYWGQGTQVTVSS
notes: as for B12

Key:
human IFN-gamma [1] = molecular target: T1, human IFN-gamma; experiment: cell-based or functional assay
human IFN-gamma [2] = molecular target: T1, human IFN-gamma; experiment: competition ELISA: VHH pre-incubated with biotinylated human IFN-γ, coated human IFN-γ receptor
Experimental: Mouse or human IFN-γ receptor was coated at a concentration of 1-2 μg/ml overnight at 4° C. Plates were washed 5 times with PBS/0.05% Tween-20. Wells were blocked with 1% caseine overnight at 4° C. VHH was pre-incubated with 20 ng biotinylated human or mouse IFN-γ for 30 minutes at room temperature. The mixture was applied to the wells and incubated for 1 hr at room temperature. Detection was performed using Extravidin-AP and pNPP as substrate. Plates were read at 405 nm after 30 minutes incubation at room temperature. Abcam AB 7812 polyclonal antibody was used as a positive control showing a dosis-dependent inhibition of human IFN-γ/IFN-γ receptor as presented in FIG. 7.
As presented in Table 6, a dose-dependent inhibition assay to determine the IC50 was performed for representative clones of each sequence family.

[3] = molecular target: T2, mouse IFN-γ receptor (IFN-γ R1/Fc); experiment: ELISA: biotinylated mouse IFN-γ on coated mouse IFN-γ R1/Fc, Extravidin-AP
Experimental: 96-well microtiter plates were coated with human IFN-γ receptor (IFN-γ R1 (R&D Systems, Cat Nr: 673-IR/CF) or mouse IFN-γ receptor (IFN-γ R1/Fc (R&D Systems, Cat Nr:1026-GR) at 1 μg/ml in PBS overnight at 4° C. Plates were washed 5 times with PBS/0.05% Tween-20. Plates were blocked for 2 hrs at room temperature using PBS+1% Caseine. A dilution serie of biotinylated human or mouse IFN-γ was incubated for 1 hr at room temperature. Plates were washed 5 times with PBS/0.05% Tween-20. Binding was detected using Extravidin-AP and pNPP. Plates were read at 405 nm after 30 minutes incubation at room temperature.

mouse IFN-gamma = molecular target: B11; experiment: ELISA screening of selected clones on captured biotinylated mouse IFN-γ (Examples 7 and 8)
Experimental: To examine the clones selected using biotinylated human or mouse IFN-γ, wells were coated with neutravidine at a concentration of 2 μg/ml overnight at 4° C. Plates were washed 5 times with PBS/0.05% Tween-20. Wells were blocked with 1% caseine for 2 hrs at room temperature. Biotinylated mouse or human IFN-γ at a concentrabon of 1 μg/ml was captured overnight at 4° C. Plates were washed 5 times with PBS/0.05% Tween-20. Culture supernatant (⅓ diluted) was applied to the wells. Detection was performed using anti-c-myc antibody, followed by anti-mouse-HRP and ABTS/H₂O₂ as substrate. Plates were read at 405 nm after 30 minutes incubation at room temperature.

B1
IC50 (nM), cell-based inhibition assay (FS4 cells treated with IFN-γ pre-incubated with VHH, EMC virus, MTT) (human IFN-gamma [1]): 0.15 nM

B2
IC50 (nM), cell-based inhibition assay (FS4 cells treated with IFN-γ pre-incubated with VHH, EMC virus, MTT) (human IFN-gamma [1]): 9000 nM | IC50 (human IFN-gamma [2]): 20 µg/mL

B3
IC50 (nM), cell-based inhibition assay (FS4 cells treated with IFN-γ pre-incubated with VHH, EMC virus, MTT) (human IFN-gamma [1]): 200000 nM | IC50 (human IFN-gamma [2]): > 200 µg/mL

B4
IC50 (nM), cell-based inhibition assay (FS4 cells treated with IFN-γ pre-incubated with VHH, EMC virus, MTT) (human IFN-gamma [1]): 9000 nM | IC50 (human IFN-gamma [2]): 5 µg/mL

B5
IC50 (nM), cell-based inhibition assay (FS4 cells treated with IFN-γ pre-incubated with VHH, EMC virus, MTT) (human IFN-gamma [1]): 9000 nM | IC50 (human IFN-gamma [2]): 8 µg/mL

B6
IC50 (nM), cell-based inhibition assay (FS4 cells treated with IFN-γ pre-incubated with VHH, EMC virus, MTT) (human IFN-gamma [1]): 9000 nM | IC50 (human IFN-gamma [2]): > 200 µg/mL

B7
IC50 (nM), cell-based inhibition assay (FS4 cells treated with IFN-γ pre-incubated with VHH, EMC virus, MTT) (human IFN-gamma [1]): 9000 nM | IC50 (human IFN-gamma [2]): 4 µg/mL

B8
IC50 (nM), cell-based inhibition assay (FS4 cells treated with IFN-γ pre-incubated with VHH, EMC virus, MTT) (human IFN-gamma [1]): 1500 nM | IC50 (human IFN-gamma [2]): 1.75 µg/mL

B9
IC50 (nM), cell-based inhibition assay (FS4 cells treated with IFN-γ pre-incubated with VHH, EMC virus, MTT) (human IFN-gamma [1]): 7500 nM | IC50 (human IFN-gamma [2]): > 200 µg/mL

B10
IC50 (nM), cell-based inhibition assay (FS4 cells treated with IFN-γ pre-incubated with VHH, EMC virus, MTT) (human IFN-gamma [1]): 5000 nM | IC50 (human IFN-gamma [2]): 8 µg/mL

B11
binding result [3]: binds

B12
binding result (mouse IFN-gamma): binds

B13
binding result (mouse IFN-gamma): binds

B14
binding result (mouse IFN-gamma): binds

B15
binding result (mouse IFN-gamma): binds

B16
binding result (mouse IFN-gamma): binds

B17
binding result (mouse IFN-gamma): binds
